B1: TRIM50: human RING type E3 ligase expressed from lentiviral vector (protein, UniProt Q86XT4 1-487, looked up)
E3 ubiquitin-protein ligase …: MAWQVSLPELEDRLQCPICLEVFKEPLMLQCGHSYCKGCLVSLSCHLDAELRCPVCRQAVDGSSSLPNVSLARVIEALRLPGDPEPKVCVHHRNPLSLFCEKDQELICGLCGLLGSHQHHPVTPVSTVYSRMKEELAALISELKQEQKKVDELIAKLVNNRTRIVNESDVFSWVIRREFQELHHLVDEEKARCLEGIGGHTRGLVASLDMQLEQAQGTRERLAQAECVLEQFGNEDHHKFIRKFHSMASRAEMPQARPLEGAFSPISFKPGLHQADIKLTVWKRLFRKVLPAPEPLKLDPATAHPLLELSKGNTVVQCGLLAQRRASQPERFDYSTCVLASRGFSCGRHYWEVVVGSKSDWRLGVIKGTASRKGKLNRSPEHGVWLIGLKEGRVYEAFACPRVPLPVAGHPHRIGLYLHYEQGELTFFDADRPDDLRPLYTFQADFQGKLYPILDTCWHERGSNSLPMVLPPPSGPGPLSPEQPTKL
B2: TRIM45: human RING type E3 ligase expressed from lentiviral vector (protein, UniProt Q9H8W5 1-580, looked up)
E3 ubiquitin-protein ligase …: MSENRKPLLGFVSKLTSGTALGNSGKTHCPLCLGLFKAPRLLPCLHTVCTTCLEQLEPFSVVDIRGGDSDTSSEGSIFQELKPRSLQSQIGILCPVCDAQVDLPMGGVKALTIDHLAVNDVMLESLRGEGQGLVCDLCNDREVEKRCQTCKANLCHFCCQAHRRQKKTTYHTMVDLKDLKGYSRIGKPILCPVHPAEELRLFCEFCDRPVCQDCVVGEHREHPCDFTSNVIHKHGDSVWELLKGTQPHVEALEEALAQIHIINSALQKRVEAVAADVRTFSEGYIKAIEEHRDKLLKQLEDIRAQKENSLQLQKAQLEQLLADMRTGVEFTEHLLTSGSDLEILITKRVVVERLRKLNKVQYSTRPGVNDKIRFCPQEKAGQCRGYEIYGTINTKEVDPAKCVLQGEDLHRAREKQTASFTLLCKDAAGEIMGRGGDNVQVAVVPKDKKDSPVRTMVQDNKDGTYYISYTPKEPGVYTVWVCIKEQHVQGSPFTVMVRRKHRPHSGVFHCCTFCSSGGQKTARCACGGTMPGGYLGCGHGHKGHPGHPHWSCCGKFNEKSECTWTGGQSAPRSLLRTVAL
B3: TRIM60: human RING type E3 ligase expressed from lentiviral vector (protein, UniProt Q495X7 1-471, looked up)
Tripartite motif-containing …: MEFVTALVNLQEESSCPICLEYLKDPVTINCGHNFCRSCLSVSWKDLDDTFPCPVCRFCFPYKSFRRNPQLRNLTEIAKQLQIRRSKRKRQKENAMCEKHNQFLTLFCVKDLEILCTQCSFSTKHQKHYICPIKKAASYHREILEGSLEPLRNNIERVEKVIILQGSKSVELKKKVEYKREEINSEFEQIRLFLQNEQEMILRQIQDEEMNILAKLNENLVELSDYVSTLKHLLREVEGKSVQSNLELLTQAKSMHHKYQNLKCPELFSFRLTKYGFSLPPQYSGLDRIIKPFQVDVILDLNTAHPQLLVSEDRKAVRYERKKRNICYDPRRFYVCPAVLGSQRFSSGRHYWEVEVGNKPKWILGVCQDCLLRNWQDQPSVLGGFWAIGRYMKSGYVASGPKTTQLLPVVKPSKIGIFLDYELGDLSFYNMNDRSILYTFNDCFTEAVWPYFYTGTDSEPLKICSVSDSER
B4: TRIM49: human RING type E3 ligase expressed from lentiviral vector (protein, UniProt P0CI25 1-452, looked up)
Tripartite motif-containing …: MNSGILQVFQGELICPLCMNYFIDPVTIDCGHSFCRPCFYLNWQDIPFLVQCSECTKSTEQINLKTNIHLKKMASLARKVSLWLFLSSEEQMCGTHRETKKIFCEVDRSLLCLLCSSSQEHRYHRHRPIEWAAEEHREKLLQKMQSLWEKACENHRNLNVETTRTRCWKDYVNLRLEAIRAEYQKMPAFHHEEEKHNLEMLKKKGKEIFHRLHLSKAKMAHRMEILRGMYEELNEMCHKPDVELLQAFGDILHRSESVLLHMPQPLNPELSAGPITGLRDRLNQFRVHITLHHEEANNDIFLYEILRSMCIGCDHQDVPYFTATPRSFLAWGVQTFTSGKYYWEVHVGDSWNWAFGVCNMYRKEKNQNEKIDGKAGLFLLGCVKNDIQCSLFTTSPLMLQYIPKPTSRVGLFLDCEAKTVSFVDVNQSSLIYTIPNCSFSPPLRPIFCCIHF
modifications: lentiviral expression
notes: human RING type E3 ligase expressed from lentiviral vector
B5: TRIM62: human RING type E3 ligase expressed from lentiviral vector (protein)
chain: MACSLKDELLCSICLSIYQDPVSLGCEHYFCRRCITEHWVRQEAQGARDCPECRRTFAEPALAPSLKLANIVERYSSFPLDAILNARRAARPCQAHDKVKLFCLTDRALLCFFCDEPALHEQHQVTGIDDAFDELQRELKDQLQALQDSEREHTEALQLLKRQLAETKSSTKSLRTTIGEAFERLHRLLRERQKAMLEELEADTARTLTDIEQKVQRYSQQLRKVQEGAQILQERLAETDRHTFLAGVASLSERLKGKIHETNLTYEDFPTSKYTGPLQYTIWKSLFQDIHPVPAALTLDPGTAHQRLILSDDCTIVAYGNLHPQPLQDSPKRFDVEVSVLGSEAFSSGVHYWEVVVAEKTQWVIGLAHEAASRKGSIQIQPSRGFYCIVMHDGNQYSACTEPWTRLNVRDKLDKVGVFLDYDQGLLIFYNADDMSWLYTFREKFPGKLCSYFSPGQSHANGKNVQPLRINTVRI
B6: TRIM52: human RING type E3 ligase expressed from lentiviral vector (protein, UniProt Q96A61 1-297, looked up)
E3 ubiquitin-protein ligase …: MAGYATTPSPMQTLQEEAVCAICLDYFKDPVSISCGHNFCRGCVTQLWSKEDEEDQNEEEDEWEEEEDEEAVGAMDGWDGSIREVLYRGNADEELFQDQDDDELWLGDSGITNWDNVDYMWDEEEEEEEEDQDYYLGGLRPDLRIDVYREEEILEAYDEDEDEELYPDIHPPPSLPLPGQFTCPQCRKSFTRRSFRPNLQLANMVQIIRQMCPTPYRGNRSNDQGMCFKHQEALKLFCEVDKEAICVVCRESRSHKQHSVLPLEEVVQEYQEIKLETTLVGILQIEQESIHSKAYNQ
modifications: lentiviral expression
notes: as for B4
B7: TRIM61: human RING type E3 ligase expressed from lentiviral vector (protein, UniProt Q5EBN2 1-209, looked up)
Putative tripartite …: MEFVTALADLRAEASCPICLDYLKDPVTISCGHNFCLSCIIMSWKDLHDSFPCPFCHFCCPERKFISNPQLGSLTEIAKQLQIRSKKRKRQEEKHVCKKHNQVLTFFCQKDLELLCPRCSLSTDHQHHCVWPIKKAASYHRKKLEEYNAPWKERVELIEKVITMQTRKSLELKKKMESPSVTRLECSCTISAHFNLRLPGSSDSSASGS
B8: TRIM46: human RING type E3 ligase expressed from lentiviral vector (protein, UniProt Q7Z4K8 1-759, looked up)
Tripartite motif-containing …: MAEGEDMQTFTSIMDALVRISTSMKNMEKELLCPVCQEMYKQPLVLPCTHNVCQACAREVLGQQGYIGHGGDPSSEPTSPASTPSTRSPRLSRRTLPKPDRLDRLLKSGFGTYPGRKRGALHPQVIMFPCPACQGDVELGERGLAGLFRNLTLERVVERYRQSVSVGGAILCQLCKPPPLEATKGCTECRATFCNECFKLFHPWGTQKAQHEPTLPTLSFRPKGLMCPDHKEEVTHYCKTCQRLVCQLCRVRRTHSGHKITPVLSAYQALKDKLTKSLTYILGNQDTVQTQICELEEAVRHTEVSGQQAKEEVSQLVRGLGAVLEEKRASLLQAIEECQQERLARLSAQIQEHRSLLDGSGLVGYAQEVLKETDQPCFVQAAKQLHNRIARATEALQTFRPAASSSFRHCQLDVGREMKLLTELNFLRVPEAPVIDTQRTFAYDQIFLCWRLPPHSPPAWHYTVEFRRTDVPAQPGPTRWQRREEVRGTSALLENPDTGSVYVLRVRGCNKAGYGEYSEDVHLHTPPAPVLHFFLDSRWGASRERLAISKDQRAVRSVPGLPLLLAADRLLTGCHLSVDVVLGDVAVTQGRSYWACAVDPASYLVKVGVGLESKLQESFQGAPDVISPRYDPDSGHDSGAEDATVEASPPFAFLTIGMGKILLGSGASSNAGLTGRDGPTAGCTVPLPPRLGICLDYERGRVSFLDAVSFRGLLECPLDCSGPVCPAFCFIGGGAVQLQEPVGTKPERKVTIGGFAKLD
modifications: lentiviral expression
notes: as for B4
B9: RNF170: human RING type E3 ligase expressed from lentiviral vector (protein, UniProt Q96K19 1-258, looked up)
E3 ubiquitin-protein ligase …: MAKYQGEVQSLKLDDDSVIEGVSDQVLVAVVVSFALIATLVYALFRNVHQNIHPENQELVRVLREQLQTEQDAPAATRQQFYTDMYCPICLHQASFPVETNCGHLFCGACIIAYWRYGSWLGAISCPICRQTVTLLLTVFGEDDQSQDVLRLHQDINDYNRRFSGQPRSIMERIMDLPTLLRHAFREMFSVGGLFWMFRIRIILCLMGAFFYLISPLDFVPEALFGILGFLDDFFVIFLLLIYISIMYREVITQRLTR
modifications: lentiviral expression
notes: as for B4
B10: TRIM59: human RING type E3 ligase expressed from lentiviral vector (protein, UniProt Q8IWR1 1-403, looked up)
Tripartite motif-containing …: MHNFEEELTCPICYSIFEDPRVLPCSHTFCRNCLENILQASGNFYIWRPLRIPLKCPNCRSITEIAPTGIESLPVNFALRAIIEKYQQEDHPDIVTCPEHYRQPLNVYCLLDKKLVCGHCLTIGQHHGHPIDDLQSAYLKEKDTPQKLLEQLTDTHWTDLTHLIEKLKEQKSHSEKMIQGDKEAVLQYFKELNDTLEQKKKSFLTALCDVGNLINQEYTPQIERMKEIREQQLELMALTISLQEESPLKFLEKVDDVRQHVQILKQRPLPEVQPVEIYPRVSKILKEEWSRTEIGQIKNVLIPKMKISPKRMSCSWPGKDEKEVEFLKILNIVVVTLISVILMSILFFNQHIITFLSEITLIWFSEASLSVYQSLSNSLHKVKNILCHIFYLLKEFVWKIVSH

System: coxsackievirus B3 (CVB3-GFP)
Type: cell-based
Details: HeLa cells, replicate R1; for Percent Infected R1: GFP-positive cells within RFP-positive gate

| Molecule | Percent Infected R1 | Z score R1 |
| --- | --- | --- |
| B1 | 57.8% | −0.392 |
| B2 | 63.9% | −0.314 |
| B3 | 54.3% | −0.436 |
| B4 | 65.7% | −0.291 |
| B5 | 51.3% | −0.474 |
| B6 | 67.6% | −0.267 |
| B7 | 65.8% | −0.29 |
| B8 | 60.8% | −0.354 |
| B9 | 97.3% | 0.11 |
| B10 | 59.5% | −0.37 |
